{"source": "paper PMC12487888", "about": "(2025)", "binders": {"B1": {"name": "EutE^1–20 encapsulation peptide (peptide)", "peptide": "MNQQDIEQVVKAVLLKMKDS"}}, "target": "EutQ (residues 1 to 229) (S. Typhimurium LT2, UniProt Q9ZFV5 1-229)", "sequence (Q9ZFV5 whole entry, the tested form may be a part)": "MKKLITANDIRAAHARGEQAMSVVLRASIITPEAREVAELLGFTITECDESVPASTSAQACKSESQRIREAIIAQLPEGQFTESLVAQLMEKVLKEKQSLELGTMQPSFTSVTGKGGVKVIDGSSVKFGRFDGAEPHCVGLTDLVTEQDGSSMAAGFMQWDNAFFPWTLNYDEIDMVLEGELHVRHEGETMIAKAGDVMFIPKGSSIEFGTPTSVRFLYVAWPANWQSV", "experiment": "ITC"}
{"binder": "B1", "values": [{"measurement": "Kd", "result": 14.1, "unit": "µM"}]}
